Values quoted from earlier work, collected in patent US20230365625A1, “METHODS FOR TREATING AND/OR PREVENTING UNDESIRABLE SEQULAE OF NASAL TURBINOPLASTY OR FUNCTIONAL ENDOSCOPIC SINUS SURGERY” (3-D Matrix, Ltd., priority 2022, published 2023).
Entries after “also recorded” stand apart in the source; their conditions may differ. Read-outs that look alike come from different tables or passages of the source.

Assays:
[1] = cited from earlier work
[2] = 1% in water; cited from earlier work
[3] = cited from earlier work; remark: listed apart in the source
[4] = RADA16 2.5%, IEIK13 1.3%, QLEL12 0.15% in water; result in words; cited from earlier work
[5] = test system: punch hole injuries to the liver; conditions: pig, in vivo; cited from earlier work
[6] = in solution before DMEM, RADA16 assumed 2.5% wt/vol, IEIK13 concentration unknown

Substance | Storage modulus G′ ([1]; 1.5% in water) | Storage modulus G′ ([1]; 2.5% in water) | Increase in storage modulus G′ after DMEM treatment relative to before [2] | Storage modulus G′ ([1]; 1% in water) | Storage modulus after DMEM treatment [2] | Gel stiffness compared to RADA16 ([3]; exposed to physiological conditions, result in words) | Median loss modulus G″ [3, 6] | Median storage modulus G′ [3, 6] | Effect of gamma-irradiation sterilization [4] | Inflammatory cell infiltration due to the gel in the wound [5]
KLDKLDKLDKLD [KLD12] | about 350 Pa | ~700 Pa | 23.9 fold |  |  |  |  |  |  | 
Ac-IEIKIEIKIEIKI-NH2 [IEIK13] |  |  | 7.4 fold | ~700 Pa | 5314 Pa | forms a stiffer gel; also recorded: form a stiffer hydrogel matrix | 116 Pa | 1145 Pa | enhanced the rheological properties | absence if inflammatory cell infiltration
Ac-QLELQLELQLEL-NH2 [QLEL12, self-assembling peptide] |  |  |  |  |  |  |  |  | significant degradation and viscosity drop | 
